This note sets out measurements from patent US20110059084A1 (BIOTEST, published 2011).

This test deals with T1, CD4 on primary human peripheral lymphocytes (human, UniProt P01730 26-458).
T1 construct: whole, on cells; also called human lymphocytes
As to the kind of experiment: flow cytometry on human PBMCs (CD3+ lymphocytes), MFI over serial dilutions of BT061. The procedure:
Human PBMCs were isolated by density gradient centrifugation and stained with FITC-labelled anti-CD3 antibody (345763; Becton/Dickinson) and serial dilutions of BT061. BT061 binding was detected with an phycoerythrin labelled human IgG antibody (109-116-098; Jackson, Immunoresearch). By flow cytometric analysis the mean fluorescence intensity of CD3+ BT061 binding lymphocytes was determined.

B1: humanized B-F5 H37L/L4M IgG1 (BT061) (antibody, V domains shown)
VH: EEQLVESGGGLVKPGGSLRLSCAASGFSFSDCRMYWLRQAPGKGLEWIGVISVKSENYGANYAESVRGRFTISRDDSKNTVYLQMNSLKTEDTAVYYCSASYYRYDVGAWFAYWGQGTLVTVSS
VL: DIVMTQSPDSLAVSLGERATINCRASKSVSTSGYSYIYWYQQKPGQPPKLLIYLASILESGVPDRFSGSGSGTDFTLTISSLQAEDVAVYYCQHSRELPWTFGQGTKVEIK
notes: also called hB-F5; humanised B-F5
Consider B1, for which the EC50 (usually the concentration at which the effect is half-maximal) was less than 0.01 µg/mL.
